Measurements published in patent US20260071199A1 (JENTHERA THERAPEUTICS, published 2026).

B1: modified nuclease Zero (other)
chain: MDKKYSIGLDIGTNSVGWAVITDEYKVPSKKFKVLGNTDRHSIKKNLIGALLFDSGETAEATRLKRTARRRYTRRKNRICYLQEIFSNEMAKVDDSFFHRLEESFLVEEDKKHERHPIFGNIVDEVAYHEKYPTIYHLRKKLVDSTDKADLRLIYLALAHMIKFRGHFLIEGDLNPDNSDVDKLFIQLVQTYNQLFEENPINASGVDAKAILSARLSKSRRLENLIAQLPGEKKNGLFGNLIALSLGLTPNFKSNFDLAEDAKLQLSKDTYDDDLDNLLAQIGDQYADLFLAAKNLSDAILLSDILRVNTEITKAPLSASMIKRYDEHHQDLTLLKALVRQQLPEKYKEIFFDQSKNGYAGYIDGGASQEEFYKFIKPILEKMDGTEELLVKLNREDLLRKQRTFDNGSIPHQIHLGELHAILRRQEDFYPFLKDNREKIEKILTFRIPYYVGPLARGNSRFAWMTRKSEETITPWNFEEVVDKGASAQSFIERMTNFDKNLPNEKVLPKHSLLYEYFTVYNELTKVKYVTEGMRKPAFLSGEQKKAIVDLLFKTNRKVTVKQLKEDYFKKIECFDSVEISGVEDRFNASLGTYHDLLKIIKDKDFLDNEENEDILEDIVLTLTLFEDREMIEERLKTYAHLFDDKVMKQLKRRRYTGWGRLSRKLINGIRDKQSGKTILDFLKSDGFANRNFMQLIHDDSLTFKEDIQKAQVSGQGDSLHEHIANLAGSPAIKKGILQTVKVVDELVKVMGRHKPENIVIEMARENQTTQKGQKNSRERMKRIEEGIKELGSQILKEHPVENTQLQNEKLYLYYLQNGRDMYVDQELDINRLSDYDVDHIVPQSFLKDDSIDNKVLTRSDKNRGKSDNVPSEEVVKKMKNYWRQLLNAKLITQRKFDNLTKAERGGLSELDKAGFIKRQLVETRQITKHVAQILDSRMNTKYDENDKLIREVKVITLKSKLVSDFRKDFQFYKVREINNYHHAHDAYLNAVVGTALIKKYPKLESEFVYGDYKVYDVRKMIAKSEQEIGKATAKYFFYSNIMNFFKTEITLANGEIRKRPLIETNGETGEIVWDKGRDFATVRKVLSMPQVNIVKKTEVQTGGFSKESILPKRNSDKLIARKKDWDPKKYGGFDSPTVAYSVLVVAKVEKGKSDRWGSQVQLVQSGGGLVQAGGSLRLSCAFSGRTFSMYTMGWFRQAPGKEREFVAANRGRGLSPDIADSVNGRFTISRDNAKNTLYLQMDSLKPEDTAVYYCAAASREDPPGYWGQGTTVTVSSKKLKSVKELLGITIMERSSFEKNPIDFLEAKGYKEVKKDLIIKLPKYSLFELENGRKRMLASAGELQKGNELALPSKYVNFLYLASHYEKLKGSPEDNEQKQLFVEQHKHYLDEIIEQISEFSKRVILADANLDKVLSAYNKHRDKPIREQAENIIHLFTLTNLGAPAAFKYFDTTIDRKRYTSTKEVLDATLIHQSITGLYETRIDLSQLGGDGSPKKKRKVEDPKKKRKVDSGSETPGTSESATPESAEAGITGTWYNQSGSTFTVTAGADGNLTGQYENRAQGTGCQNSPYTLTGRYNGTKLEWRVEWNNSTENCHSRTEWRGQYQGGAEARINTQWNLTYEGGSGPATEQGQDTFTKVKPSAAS
B2: modified nuclease L1 (other)
chain: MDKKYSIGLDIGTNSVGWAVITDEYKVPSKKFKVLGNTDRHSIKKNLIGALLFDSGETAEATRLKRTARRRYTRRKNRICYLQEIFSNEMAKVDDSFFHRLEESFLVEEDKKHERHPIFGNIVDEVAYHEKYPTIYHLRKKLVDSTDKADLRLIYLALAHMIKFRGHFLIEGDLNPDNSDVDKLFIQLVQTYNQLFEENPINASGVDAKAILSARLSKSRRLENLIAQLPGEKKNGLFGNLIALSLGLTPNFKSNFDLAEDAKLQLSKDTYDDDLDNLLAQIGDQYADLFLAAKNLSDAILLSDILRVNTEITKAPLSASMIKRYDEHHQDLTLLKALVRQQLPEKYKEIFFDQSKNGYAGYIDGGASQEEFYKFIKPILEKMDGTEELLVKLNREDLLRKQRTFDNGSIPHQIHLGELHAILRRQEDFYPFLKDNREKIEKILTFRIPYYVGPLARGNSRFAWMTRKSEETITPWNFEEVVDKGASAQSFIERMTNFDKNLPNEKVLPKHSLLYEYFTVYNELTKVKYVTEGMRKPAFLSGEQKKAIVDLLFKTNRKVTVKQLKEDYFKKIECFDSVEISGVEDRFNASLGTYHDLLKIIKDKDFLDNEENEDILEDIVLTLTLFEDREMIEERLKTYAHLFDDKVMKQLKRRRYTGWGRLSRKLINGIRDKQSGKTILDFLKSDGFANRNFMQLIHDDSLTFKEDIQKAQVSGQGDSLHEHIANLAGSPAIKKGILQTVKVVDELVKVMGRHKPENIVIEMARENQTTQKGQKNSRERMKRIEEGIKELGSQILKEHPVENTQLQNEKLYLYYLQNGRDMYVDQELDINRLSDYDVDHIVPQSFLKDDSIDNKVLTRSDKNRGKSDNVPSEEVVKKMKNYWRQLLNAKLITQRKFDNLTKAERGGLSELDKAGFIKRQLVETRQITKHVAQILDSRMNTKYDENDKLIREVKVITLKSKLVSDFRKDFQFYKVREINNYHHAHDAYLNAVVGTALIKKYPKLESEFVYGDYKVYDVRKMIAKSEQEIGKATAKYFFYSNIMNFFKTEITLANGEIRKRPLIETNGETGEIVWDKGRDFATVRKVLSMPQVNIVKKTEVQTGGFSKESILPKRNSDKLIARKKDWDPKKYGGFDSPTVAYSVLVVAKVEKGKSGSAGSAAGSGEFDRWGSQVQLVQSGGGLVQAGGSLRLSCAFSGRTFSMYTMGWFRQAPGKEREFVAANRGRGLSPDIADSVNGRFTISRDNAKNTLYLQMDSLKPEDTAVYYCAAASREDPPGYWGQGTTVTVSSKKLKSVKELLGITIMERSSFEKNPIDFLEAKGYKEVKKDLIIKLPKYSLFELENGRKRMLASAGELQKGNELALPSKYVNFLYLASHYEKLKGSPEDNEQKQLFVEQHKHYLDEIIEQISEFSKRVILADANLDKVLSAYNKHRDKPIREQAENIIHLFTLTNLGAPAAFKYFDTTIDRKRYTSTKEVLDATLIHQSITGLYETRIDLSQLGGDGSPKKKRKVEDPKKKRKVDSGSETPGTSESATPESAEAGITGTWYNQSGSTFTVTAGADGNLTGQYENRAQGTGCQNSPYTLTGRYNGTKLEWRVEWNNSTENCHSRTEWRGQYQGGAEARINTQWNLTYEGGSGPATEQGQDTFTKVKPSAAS
B3: modified nuclease L2 (other)
chain: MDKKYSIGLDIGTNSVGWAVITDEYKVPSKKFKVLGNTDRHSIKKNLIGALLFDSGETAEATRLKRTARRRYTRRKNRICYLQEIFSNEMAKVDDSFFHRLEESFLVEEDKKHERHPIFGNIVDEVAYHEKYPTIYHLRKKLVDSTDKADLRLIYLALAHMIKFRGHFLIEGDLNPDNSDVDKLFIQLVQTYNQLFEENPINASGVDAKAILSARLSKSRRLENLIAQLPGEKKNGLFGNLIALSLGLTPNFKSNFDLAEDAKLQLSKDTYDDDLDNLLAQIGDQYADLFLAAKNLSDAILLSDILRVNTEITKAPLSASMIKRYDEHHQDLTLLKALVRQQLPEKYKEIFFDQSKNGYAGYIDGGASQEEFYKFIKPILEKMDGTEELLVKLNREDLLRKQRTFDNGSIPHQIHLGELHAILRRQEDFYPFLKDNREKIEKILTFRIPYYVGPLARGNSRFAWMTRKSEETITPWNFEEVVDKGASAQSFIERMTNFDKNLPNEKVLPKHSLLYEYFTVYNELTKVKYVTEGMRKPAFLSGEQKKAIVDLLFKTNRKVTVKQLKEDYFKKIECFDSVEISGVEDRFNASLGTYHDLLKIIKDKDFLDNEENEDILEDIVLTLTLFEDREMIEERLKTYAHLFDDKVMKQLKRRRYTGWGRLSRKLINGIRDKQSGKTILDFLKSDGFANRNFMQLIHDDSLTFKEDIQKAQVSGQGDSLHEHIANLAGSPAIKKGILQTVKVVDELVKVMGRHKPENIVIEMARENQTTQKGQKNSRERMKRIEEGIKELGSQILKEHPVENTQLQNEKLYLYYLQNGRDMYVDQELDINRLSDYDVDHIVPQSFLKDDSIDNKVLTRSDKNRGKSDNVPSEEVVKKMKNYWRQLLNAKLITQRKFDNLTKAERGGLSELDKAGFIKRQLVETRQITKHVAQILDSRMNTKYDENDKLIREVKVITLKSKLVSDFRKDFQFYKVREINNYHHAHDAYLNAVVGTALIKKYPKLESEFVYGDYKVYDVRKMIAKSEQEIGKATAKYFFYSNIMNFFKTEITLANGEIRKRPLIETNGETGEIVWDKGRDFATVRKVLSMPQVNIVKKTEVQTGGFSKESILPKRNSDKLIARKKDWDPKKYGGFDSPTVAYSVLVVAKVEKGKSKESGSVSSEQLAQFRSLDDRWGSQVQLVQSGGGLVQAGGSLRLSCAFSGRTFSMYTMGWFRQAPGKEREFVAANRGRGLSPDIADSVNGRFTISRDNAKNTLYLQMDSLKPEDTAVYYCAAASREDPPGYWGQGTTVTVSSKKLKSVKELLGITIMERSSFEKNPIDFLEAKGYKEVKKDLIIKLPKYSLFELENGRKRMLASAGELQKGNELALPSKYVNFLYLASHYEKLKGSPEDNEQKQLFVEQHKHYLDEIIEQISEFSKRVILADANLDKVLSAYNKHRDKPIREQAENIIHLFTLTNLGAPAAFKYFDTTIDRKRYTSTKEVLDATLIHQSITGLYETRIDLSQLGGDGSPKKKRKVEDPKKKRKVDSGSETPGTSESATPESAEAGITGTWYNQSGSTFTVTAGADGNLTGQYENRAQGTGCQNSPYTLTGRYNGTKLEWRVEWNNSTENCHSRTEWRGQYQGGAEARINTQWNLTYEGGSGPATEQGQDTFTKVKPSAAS

Target: T1, CD4 on CD4+ T cells (Jurkat CD4+ T cells; human primary CD4+ T cells) (human, UniProt P01730 26-458)
T1 construct: whole, on cells; also called CD4 receptor
Test: flow cytometry, TAMRA-labelled nuclease, 1 h on Jurkat CD4+ T cells

Row | Binder | delivery (percent of cells TAMRA-positive) [%]
1 | B1 | > 99
2 | B2 | > 99
3 | B3 | > 99
